First the molecules themselves.
B1: HaloTag-CRBN (human, wild type) [human] / hCRBN-NanoLuc with a 191-248 aa deletion (Trunc) [human] (parent)
chain 1: MAGEGDQQDAAHNMGNHLPLLPAESEEEDEMEVEDQDSKEAKKPNIINFDTSLPTSHTYLGADMEEFHGRTLHDDDSCQVIPVLPQVMMILIPGQTLPLQLFHPQEVSMVRNLIQKDRTFAVLAYSNVQEREAQFGTTAEIYAYREEQDFGIEIVKVKAIGRQRFKVLELRTQSDGIQQAKVQILPECVLPSTMSAVQLESLNKCQIFPSKPVSREDQCSYKWWQKYQKRKFHCANLTSWPRWLYSLYDAETLMDRIKKQLREWDENLKDDSLPSNPIDFSYRVAACLPIDDVLRIQLLKIGSAIQRLRCELDIMNKCTSLCCKQCQETEITTKNEIFSLSLCGPMAAYVNPHGYVHETLTVYKACNLNLIGRPSTEHSWFPGYAWTVAQCKICASHIGWKFTATKKDMSPQKFWGLTRSALLPTIPDTEDEISPDKVILCL
chain 2: MAGEGDQQDAAHNMGNHLPLLPAESEEEDEMEVEDQDSKEAKKPNIINFDTSLPTSHTYLGADMEEFHGRTLHDDDSCQVIPVLPQVMMILIPGQTLPLQLFHPQEVSMVRNLIQKDRTFAVLAYSNVQEREAQFGTTAEIYAYREEQDFGIEIVKVKAIGRQRFKVLELRTQSDGIQQAKVQILPECVLDAETLMDRIKKQLREWDENLKDDSLPSNPIDFSYRVAACLPIDDVLRIQLLKIGSAIQRLRCELDIMNKCTSLCCKQCQETEITTKNEIFSLSLCGPMAAYVNPHGYVHETLTVYKACNLNLIGRPSTEHSWFPGYAWTVAQCKICASHIGWKFTATKKDMSPQKFWGLTRSALLPTIPDTEDEISPDKVILCL
B2: HaloTag-mouse CRBN (wild type) [mouse] / hCRBN-NanoLuc with a 191-248 aa deletion (Trunc) [human] (parent)
chain 1: MAGEGDQQDAAHNMGNHLPLLPADSEDEDDEIEMEVEDQDSKEARKPNIINFDTSLPTSHTYLGADMEEFHGRTLHDDDSCQVIPVLPEVLMILIPGQTLPLQLSHPQEVSMVRNLIQKDRTFAVLAYSNVQEREAQFGTTAEIYAYREEQEFGIEVVKVKAIGRQRFKVLELRTQSDGIQQAKVQILPECVLPSTMSAVQLESLNKCQVFPSKPISWEDQYSCKWWQKYQKRKFHCANLTSWPRWLYSLYDAETLMDRIKKQLREWDENLKDDSLPENPIDFSYRVAACLPIDDVLRIQLLKIGSAIQRLRCELDIMNKCTSLCCKQCQETEITTKNEIFSLSLCGPMAAYVNPHGYVHETLTVYKASNLNLIGRPSTVHSWFPGYAWTIAQCKICASHIGWKFTATKKDMSPQKFWGLTRSALLPTIPETEDEISPDKVILCL
chain 2: B1 chain 2

The variants in the first test derive from B1. The experiment in a line: NanoBRET. As to conditions: with hCRBN-NanoLuc with a 191-248 aa deletion (Trunc) [human]; MRT-31619 at log10 concentration = 4 (highest dose; concentration unit inferred); three biological replicates, mean ± SEM; read off a plot. (BRET reads energy transfer from a luciferase to a nearby fluorophore.)
On to chain 1 MAGEGDQQDAAHNMGNHLPLLPAESEEEDEMEVEDQDSKEAKKPNIINFDTSLPTSHTYLGADMEEFHGRTLHDDDSCQVIPVLPQVMMILIPGQTLPLQLFHPQEVSMVRNLIQKDRTFAVLAYSNVQEREAQFGTTAEIYAYREEQDAGIEIVKVKAIGRQRFKVLELRTQSDGIQQAKVQILPECVLPSTMSAVQLESLNKCQIFPSKPVSREDQCSYKWWQKYQKRKFHCANLTSWPRWLYSLYDAETLMDRIKKQLREWDENLKDDSLPSNPIDFSYRVAACLPIDDVLRIQLLKIGSAIQRLRCELDIMNKCTSLCCKQCQETEITTKNEIFSLSLCGPMAAYVNPHGYVHETLTVYKACNLNLIGAPSTEHSWFPGYAWTVAQCKICASHIGWKFTATKKDMSPQKFWGLTRSALLPTIPDTEDEISPDKVILCL [chain 1 F150A R373A], for which the response was 2.9 mBU.

For chain 1 MAGEGDQQDAAHNMGNHLPLLPAESEEEDEMEVEDQDSKEAKKPNIINFDTSLPTSHTYLGADMEEFHGRTLHDDDSCQVIPVLPQVMMILIPGQTLPLQLFHPQEVSMVRNLIQKDRTFAVLAYSNVQEREAQFGTTAEIYAYREEQDFGIEIVKVKAIGRQRFKVLELRTQSDGIQQAKVQILPECVLPSTMSAVQLESLNKCQIFPSKPVSREDQCSYKWWQKYQKRKFHCANLTSWPRWLYSLYDAETLMDRIKKQLREWDENLKDDSLPSNPIDFSYRVAACLPIDDVLRIQLLKIGSAIQRLRCELDIMNKCTSLCCKQCQETEITTKNEIFSLSLCGPMAAYVNPHGYVHETLTVYKACNLNLIGAPSTEHSWFPGYAWTVAQCKICASHIGWKFTATKKDMSPQKFWGLTRSALLPTIPDTEDEISPDKVILCL [chain 1 R373A], the response is 2.6 mBU.

For chain 1 MAGEGDQQDAAHNMGNHLPLLPAESEEEDEMEVEDQDSKEAKKPNIINFDTSLPTSHTYLGADMEEFHGRTLHDDDSCQVIPVLPQVMMILIPGQTLPLQLFHPQEVSMVRNLIQKDRTFAVLAYSNVQEREAQFGTTAEIYAYREEQDAGIEIVKVKAIGRQRFKVLELRTQSDGIQQAKVQILPECVLPSTMSAVQLESLNKCQIFPSKPVSREDQCSYKWWQKYQKRKFHCANLTSWPRWLYSLYDAETLMDRIKKQLREWDENLKDDSLPSNPIDFSYRVAACLPIDDVLRIQLLKIGSAIQRLRCELDIMNKCTSLCCKQCQETEITTKNEIFSLSLCGPMAAYVNPHGYVHETLTVYKACNLNLIGRPSTEHSWFPGYAWTVAQCKICASHIGWKFTATKKDMSPQKFWGLTRSALLPTIPDTEDEISPDKVILCL [chain 1 F150A], the response was found to be 3.7 mBU.

Take chain 1 MAGEGDQQDAAHNMGNHLPLLPAESEEEDEMEVEDQDSKEAKKPNIINFDTSLPTSHTYLGADMEEFHGRTLHDDDSCQVIPVLPQVMMILIPGQTLPLQLFHPQEVSMVRNLIQKDRTFAVLAYSNVQEREAQFGTTAEIYAYREEQDFGIEIVKVKAIGRQRFKVLELRTQSDGIQQAKVQILPECVLPSTMSAVQLESLNKCQIFPSKPVSREDQCSYKWWQKYQKRKFHCANLTSWPRWLYSLYDAETLMDRIKKQLREWDENLKDDSLPSNPIDFSYRVAACLPIDDVLRIQLLKIGSAIQRLRCELDIMNKCTSLCCKQCQETEITTKNEIFSLSLCGPMAAYVNPHGYVHETLTVYKACNLNLIGRPSTAHSWFPGYAWTVAQCKICASHIGWKFTATKKDMSPQKFWGLTRSALLPTIPDTEDEISPDKVILCL [chain 1 E377A]: the response came to 3.3 mBU.

Variants of B2 are the subject of the next test. The experiment in a line: NanoBRET. As to conditions: with hCRBN-NanoLuc with a 191-248 aa deletion (Trunc) [human]; MRT-31619 at log10 concentration = 4 (highest dose; concentration unit inferred); six biological replicates, mean ± SD; read off a plot.
Consider chain 1 MAGEGDQQDAAHNMGNHLPLLPADSEDEDDEIEMEVEDQDSKEARKPNIINFDTSLPTSHTYLGADMEEFHGRTLHDDDSCQVIPVLPEVLMILIPGQTLPLQLSHPQEVSMVRNLIQKDRTFAVLAYSNVQEREAQFGTTAEIYAYREEQEFGIEVVKVKAIGRQRFKVLELRTQSDGIQQAKVQILPECVLPSTMSAVQLESLNKCQVFPSKPISWEDQYSCKWWQKYQKRKFHCANLTSWPRWLYSLYDAETLMDRIKKQLREWDENLKDDSLPENPIDFSYRVAACLPIDDVLRIQLLKIGSAIQRLRCELDIMNKCTSLCCKQCQETEITTKNEIFSLSLCGPMAAYVNPHGYVHETLTVYKASNLNLIGRPSTEHSWFPGYAWTVAQCKICASHIGWKFTATKKDMSPQKFWGLTRSALLPTIPETEDEISPDKVILCL [chain 1 V380E I391V], for which the response was 2.7 mBU.

Regarding chain 1 MAGEGDQQDAAHNMGNHLPLLPADSEDEDDEIEMEVEDQDSKEARKPNIINFDTSLPTSHTYLGADMEEFHGRTLHDDDSCQVIPVLPEVLMILIPGQTLPLQLFHPQEVSMVRNLIQKDRTFAVLAYSNVQEREAQFGTTAEIYAYREEQEFGIEVVKVKAIGRQRFKVLELRTQSDGIQQAKVQILPECVLPSTMSAVQLESLNKCQVFPSKPISWEDQYSCKWWQKYQKRKFHCANLTSWPRWLYSLYDAETLMDRIKKQLREWDENLKDDSLPENPIDFSYRVAACLPIDDVLRIQLLKIGSAIQRLRCELDIMNKCTSLCCKQCQETEITTKNEIFSLSLCGPMAAYVNPHGYVHETLTVYKASNLNLIGRPSTVHSWFPGYAWTIAQCKICASHIGWKFTATKKDMSPQKFWGLTRSALLPTIPETEDEISPDKVILCL [chain 1 S105F], the response came out at 1.9 mBU.

(Values after article PMC12630686, “A degron-mimicking molecular glue drives CRBN homo-dimerization and degradation” (Nature Communications, 2025).)
